# Assay: soluble on expression in E. coli; label from the status in PepcDB or PDB records
row,Sequence,soluble on expression in E. coli
1,MGHHHHHHSHMTGRLDELEKAITTQNCNTKCVTIPSTCSEIWGLSTPNTIDQWDTTGLYSFSEQTRSLDGRLQVSHRKGLPHVIYCRLWRWPDLHSHHELKAIENCEYAFNLKKDEVCVNPYHYQRVETPVLPPVLVPRHTEILTELPPLDDYTHSIPE,soluble
2,MGSDKIHHHHHHMSSSPSTLNFGSMTDVFGFLIEIDKLKSVQRRTKIIGSERHEDSAEHSWHFAVAAMALAPYAGEGVDIQRVIQMALIHDIVEIDAGDVIVYDLSARLAIHDQEVAAAARIFGLLPEPQRQQFQDLWEEYEANETPSAQFALVLDRVMPMLMNLYNGGQSWVENGIRLEQVLDRAEFIATINPELWQYMKQHLEDAKAKGWLL,not soluble
3,MTDAAIAEKDLGNAAYKQKDFEKAHVHYDKAIELDPSNITFYNNKAAVYFEEKKFAECVQFCEKAVEVGRETRADYKLIAKAMSRAGNAFQKQNDLSLAVQWFHRSLSEFRDPELVKKVKELEKQLKAAERLAYINPELAQEEKNKGNEYFKKGDYPTAMRHYNEAVKRDPENAILYSNRAACLTKLMEFQRALDDCDTCIRLDSKFIKGYIRKAACLVAMREWSKAQRAYEDALQVDPSNEEAREGVRNCLRSNDEDPEKAKERSLADPEVQEILRDPGMRMILEQMSNDPGAVREHLKNPEIFQKLMKLRDAGVIQMR,soluble
4,MSLVKAISSNLGYPRLGEKREWKRALEKFWNGAISEEELLAETKALRLHALKKQQEKGIDLIPVGDFSFYDQVLDTSVTFGIIPKRFQHDGGKVSLNTYFDIARGKSDAVASEMTKWFNTNYHYIVPELADADPKVLDNRALYYYEEAKKELGIEGKPVLVGPVTYLKLGKGNDAENFEALLDKFIPAYVEILKELERAGAKWVQIDEPYLATSFDKSEIKLFEKVYQAFQTAVPNLKIELQTYFESLDYYEEVVNLPVAAIGIDFVHDHGDSLEALKAHGFPEDKYLAAGVIDGRNVWRSDLDAKLSLLTEIADYVTDGKLIVQPSNSLLHVPVTKLSEPDLDEVILGGLSFADQKLDEIAILTKALTDGAESVTAELEDARAAVTALNESSHRNNLEVQEAIANLGNVRVDRELPFAERIKLQHAWLNLPLFPTTTIGSFPQSPEVRKTRADWLKGNITDAEYNAFIEKETARWIKIQEELDIDVLVHGEFERTDMVEYFGQKLAGFQATKFGWVQSYGSRAVRPPLIYGDVAFTEEITVKESVYAQSLTKRPVKGMLTAPVTIINWSFVRDDVPESVVANQVGLALRKEVEALERNGIKVIQVDEPALREGLPLKQARWEKYLNDAVYSFKLTTASVQNDTQIHTHMCYSDFDDIIDTISALDADVISIETSRSHGEIISTFEEVTYDKEIGLGVYDIHSPRVPTVTEIQDNIRRALRAIDAKQFWINPDCGLKTRKEPETIAALQDMIKATKEVRAEYQVLEKEGHHHHHH,soluble
5,MSQTGEKGKFPDAAGYVGFANLPNQVHRKSVKKGFEFTLMVVGESGLGKSTLINSLFLTDLYPERYIPGAAEKIERTVQIEASTVEIEERGVKLRLTVVDTPGYGDAINSQDCFKTIIQYIDNQFERYLHDESGLNRRHIVDNRVHCCFYFISPFGHGLKPLDVEFMKAIHSKVNIVPVIAKADTLTLKERDRLKRRILDEISEHGIRIYQLPDADSDEDEEFKDFVPNRCIWSSLQFYQMHIIAITFIDIMFVFKKAAHVISTTIIMVKLNIKCQ,not soluble
6,MQADPAIRRFAKKRNKRVDRMILDSNYMHTSIDRYFPNESKRRGRPDIIYLLLEMTQESILNHKNQLRTYVHTRNNQVIRISPITRMPKSYNRFIGLFEDLFEKRIITNNGKELLSMEESSLGDLINSIRRDRTILLHPKGEMRKPSEFISNANILIVIGGFSEGDFISDTSFINERYAIFDQELTIWSVANEMVANYERAVGLT,not soluble
7,MGPAHKARDDGEGGWSMNSHPPLSVQTLNTLDRKAFTTALHFAFELSPWVVERAWDARPFASVETMHAAMMAVLDAASTADKLALIRAHPELAGKAAIAKQLTAESNAEQASAGLDKLTPDEFARFHALNAAYNTRFGFPFIICVRLNDKASILEAMAARLSNDEASEIAQAITQIGLISKLRLLDAVTHLEHHHHHH,not soluble
8,MNIVEEHREKCTQCGQCLSVCPRYDDLGLLDLLYGYLEGTSEIEPDSLLSCLTCGLCADACPEALGIKMLISPARQKWVSEHGLTDRQLEHHHHHH,not soluble
9,MSAPLIDKYRKMATFDWKKLKAAVEGEEHVRLKSEVVAKMKSEPVFHRDYRVLSREEQREVVHQRWKKIVEWGLFKDPYSDLENFHALTETLEAYDQGTSARLFLHGNVFGAAVKSMGTDRHKDLIQKTENNEIVGAFCLTEVGHGSNTAEIQTTATFDNGELVFNTPSVSAIKCWAGNLAHSATHVVVYAQLHVEGKNEGFHGFVIQVRCPRTFQTLPGITIGDMGSKPGCWQGVENGWMEFKNHRAPLSALLNKGCDITPDGKYVTSFKSASEKQSVSLGTLSVGRLGIIAKGMMACTFASTIAIRYSVARRQFGPVKGAENEIPVLEYPLQQYRLFPYLSAAICIRIFQKKFVGHFTEYMMRVIMGEKSDELSEFSKEVHALSSGAKPVATWLGVESLGEARKACGGHGYLQMSRLNTLRDDNDPSQTFEGENFMILQQTSNILLGKAQSIGSIETPMSTMSFLNQKPSKFSSWSSNPVNDVLSAYRYLTYHLLQTTSAEAYRLKASGKNSFEVRNEIQIHRAVNLSVAYTEHTMIHWVQQFLKEIEDQSVKPVLQKVLNLFSLFLLERHLATLYITGYASGGKFGEDLREKLRLAVAELKPEAIALVDSIAPDDFILHSALGASDGKAYEHIMEEFRKYTNEQPRWVCDLAQFLQKRSQGSKL,not soluble
10,MSLKARSPYSPAEEDALFMDLPTGPRGQQAQPQRAEKNGMLPASYGPGEQNGTGGYQRAFPPRTNPEKHSQRKSNLAQVEHWARAQKGDSRSLPLDQTLPRQGPGQSLSFPENYQTLPKSTRHPSGGSSPPPRNLPSDYKYAQDRASHLKMSSEERRAHRDGTVWQLYEWQQRQQFRHGSPTAPICLGSPEFTDQGRSRSMLEVPRSISVPPSPSDIPPPGPPRVFPPRRPHTPAERVTVKPPDQRRSVDISLGDSPRRARGHAVKNSSHVDRRSMPSMGYMTHTVSAPSLHGKSADDTYLQLKKDLEYLDLKMTGRDLLKDRSLKPVKIAESDTDVKLSIFCEQDRVLQDLEDKIRALKENKDQLESVLEVLHRQMEQYRDQPQHLEKIAYQQKLLQEDLVHIRAELSRESTEMENAWNEYLKLENDVEQLKQTLQEQHRRAFFFQEKSQIQKDLWRIEDVTAGLSANKENFRILVESVKNPERKTVPLFPHEGHHHHHH,not soluble
11,MENSFELMAREWHKNKADRWSLRYREEIIDTFEKDIFPFIGRRPIADIKPMELLETLKRMEKRGALEKMRKVRQRCGEVFRYAIITGRAEYNPAPDLAGALQTHKKQHLPLEHHHHHH,not soluble
12,MEAVAEHDFQAGSPDELSFKRGNTLKVLNKDEDPHWYKAELDGNEGFIPSNYIRMTECNWYLGKITRNDAEVLLKKPTVRDGHFLVRQCESSPGEFSISVRFQDSVQHFKVLRDQNGKYYLWAVKFNSLNELVAYHRTASVSRTHTILLSDMNVETKFVQALFDFNPQESGELAFKRGDVITLINKDDPNWWEGQLNNRRGIFPSNYVCPYNSNKSNSNVAPGFNFGN,not soluble
13,MGSDKIHHHHHHMQKEQCYMCEKSATSAEHVPPKCLFPEFKDAKKNLRVNLITVPSCDEHNGKKSHDDEFLMVSIAGIIGNNSIGYQHYSGKIQRALRRTSYKLLEKVFLRKELVRIGDENKFIEILWGTPDYERLINCFSHIAYGIYHHHFKQKFYGVLKPYLGFLHTNEQNPKAFKAFIKEKVRVELADEPKYGDNLEVFYYQFTKPDNFGIFLVKLCFYQNVDVFVSYMPSGAQKPTHLGFELMNRGIKTIITLGDKEYEFN,not soluble
14,MGSDKIHHHHHHLLPKYNILTEDQVQKIHENTMKILEEIGIEFEYEPALEVFRREGQKVEGKRVYLTREFVESKLKSAPAEFTLHARNPENNVVIGGDNIVFMPGYGAPFIYELDGSRRKTTLQDYENFAKLAGASKNMHLSGGTMAEPQDIPDGVRHLQMLYSSIKNSDKCFMGSAEGKERAEDSVEIAAILFGGKDVIKEKPVLVSLINSLTPLKYDERMLGALMAYAEAGQAVIIASLVMAGSTGPASLAGTLSLQNAEVLAGISLAQSINPGTPVIYGSTSALSDMRSGSLSIGSPECALFISASAQLARFYGVPSRSGGGLNDSKTVDAQAGYESMMTLMAANLTGVNFVLHTAGILQYFMAMSYEKFIMDDEIAGMLLHYMKGYTFDEDGMAFDVIEKVGPGGHFLTQKHTRKNHKREFYTPTLSDRSAYDTWAKEKLETKQRAHARWQQILANYVPPALDPEIDAKLQAFIAQRGKEVGEE,not soluble
15,MIITQGPQFQGKASKRLHVMAKPIGAVCNIDCSYCYYLSKEDLLEYKKGCSPQMDDETLETYIRQYIEGQNTPEIIFSWQGGEPTLLGLDYFKKIVEFQKKYQPEGILISNDLQTNGTLLTDKWCEFLAENNFLVGLSIDGPEMLHNAYRTNKAGRGTFKQVMNAVELLHKHNVKFATLTCVNNLTSRNPLEVYRFLRDVVKSPQMQFIPIVEQKTFRTVAPQTEQIAAQLRQGDKRLIPGNKESIMEPWCVSDEAWGNFLIAVFDEWTQHDLGKVFVQYFEASVETWMGRKNPLCTLGEICGKGLAMEHNGDVFACDHYVYPEYKIGNIHNEELDTLAFSRKQQEFGFAKSKTLTTQCQKCEYKFACHGECPKNRFIKTRDGEPGLNYLCAGWKKFFAHADKSIAYILKMLGNPVQHGKYSDAKMQQVHQNAFPTKF,not soluble
16,MTKNDNTIFKDIYQLWFTQYKQTVKESTWVTTQRLFRLHILPIFSDYRIAKISIKDCQKAINQWFNAGLAKYHTLMNYVAKVLDYAINIDLISENPAKRVIVPVNKNDRSLEHHHHHH,soluble
17,MMARVTPDQALISFRNARILWAGHSESRKAVEQQIESLLTAMEKPADYARQLELQREHLDVLKWQINCAARECIYSQHQLMEACTEDALSNFMQANGAALTSALAPFLKGRGGVDVASRILRNALVRQLAITPPEIAGDYRMILDESGVMPDPMMVRDCQSSYTPAQQLRFQQRLDYINGMQE,soluble
18,SVEDELALFDKSINEFWNKFKSTDTSCQMAGLRDTYKDSIKAFAEKLSVKLKEEERMVEMFLEYQNQISRQNKLIQEKKDNLLKLIAEVKGKKQELEVLTANIQDLKEEYSRKKETISTANKANAERLKRLQKSADLYKDRLGLEIRKIYGEKLQFIFTNIDPKNPESPFMFSLHLNEARDYEVSDSAPHLEGLAEFQENVRKTNNFSAFLANVRKAFTATVYN,soluble
19,MAGLRSFSIVMPAYNVVTQRGERIFRETLESIAASCRYLQQHFPYTPEGELILISDGSTDRTCDVAMAGWPNAVPLQLVGLPTNVGIAAARNIGVRLAKGEVIFFCDADDLYRPEHLFLALSVLNQPLPEPYAPAYFGAVRTGVYCRDRLHPYWHKSLEQTLVLNLAVRREVHEFIGGFPEDEVFRQFRYGAEDVAYAYWLHQFCHTARLEQRTVEYRRFPLEHHHHHH,soluble
20,TKLTEQQTMNGLLRFGEYQRIIERRSFSLLDMKRFVTALGLESGGYRGEFSDLVNQGQPAIVPISYAGFKHFVVYKGYKDGRVYVADPALGNISFDEVRFKEIWENNTLFLIQVPE,not soluble
21,MAHHHHHHMSSIKINKDESKRVHIWIKSAIGTPNRRQFKHKNIMYPYFRMYKSPYRARDSRTRQAFWPCVDKYPWHTHQKRWVDIEQLNLKFFSEFTNKDPSRKNLFETCHTLPFNGINCLFWNPIYLNSHKFFLKKNKKDANRGEDNNMEENDDVKENTIEGNDDVKEHAIEGYTNNNVNNHNDIINQYDENKKVIKINDFHYIVDKDVKNNTYFYLKYIKYSMRPFRGKLIGDIYLNQTKIRHNISAKGFVNGEWKYSYPHININKKIEHISLNNNLTSNDIYSNNINNLVIVDKYTYRPPLPKSYIFQKDIL,not soluble

# Reference: the DeepSol protein solubility set
